Test results: patent US20220064263A1 (published 2022)

T1: canine IL4 (canine, UniProt O77762 25-132, biotinylated (site not stated))
T1 construct: Biotinylated and captured on streptavidin sensor tips
T1 sequence (looked up): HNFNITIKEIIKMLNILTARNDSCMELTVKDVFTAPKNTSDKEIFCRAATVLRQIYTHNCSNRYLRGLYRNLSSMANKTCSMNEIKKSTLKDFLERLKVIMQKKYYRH


What was measured:
canine IL4 = target: T1, canine IL4; assay: biosensor; biotinylated canine IL4 on streptavidin tips, fusion at 25 µg/mL
Method: (§1) A biosensor binding analysis was performed to determine the binding affinity of C1q to IL13R(ECD)-IL4R(ECD)-wild type canine IgG-B Fc (SEQ ID NO: 271) compared to IL13R(ECD)-IL4R(ECD)-variant canine IgG-B Fc (SEQ ID NO: 202). Briefly canine IL4 was biotinylated and captured to streptavidin sensor tips. Either IL13R(ECD)-IL4R(ECD)-wild type canine IgG-B Fc (25 μg/mL) or IL13R(ECD)-IL4R(ECD)-variant canine IgG-B Fc (25 μg/mL) was complexed to the IL4-bound biosensors. Subsequently, the complex was used to bind human C1q at 250 μg/mL (Catalog No. 204876-1MG; Sigma Aldrich). The ability of human C1q to bind either complex was measured. Reduced binding between human C1q and IL13R(ECD)-IL4R(ECD)-variant canine IgG-B Fc was observed when compared to IL13R(ECD)-IL4R(ECD)-wild type canine IgG-B Fc.

human C1q = target: T2, human C1q (human, UniProt P02745 23-245; P02746 28-253; P02747 29-245); assay: biosensor; fusion captured on IL4-bound tips, human C1q at 250 µg/mL
T2 construct: Bought protein complex; the three subunit chains come from general knowledge; also called C1q complex
T2 sequence (P02745 23-245 limits assumed, chain 1 of 3): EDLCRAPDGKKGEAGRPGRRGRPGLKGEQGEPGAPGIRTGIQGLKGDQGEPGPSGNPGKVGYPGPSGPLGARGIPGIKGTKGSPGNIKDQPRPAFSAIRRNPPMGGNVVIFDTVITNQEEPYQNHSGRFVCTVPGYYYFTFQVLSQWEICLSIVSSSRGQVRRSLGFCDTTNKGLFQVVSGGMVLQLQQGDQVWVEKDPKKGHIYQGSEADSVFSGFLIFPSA
T2 sequence (P02746 28-253 limits assumed, chain 2 of 3): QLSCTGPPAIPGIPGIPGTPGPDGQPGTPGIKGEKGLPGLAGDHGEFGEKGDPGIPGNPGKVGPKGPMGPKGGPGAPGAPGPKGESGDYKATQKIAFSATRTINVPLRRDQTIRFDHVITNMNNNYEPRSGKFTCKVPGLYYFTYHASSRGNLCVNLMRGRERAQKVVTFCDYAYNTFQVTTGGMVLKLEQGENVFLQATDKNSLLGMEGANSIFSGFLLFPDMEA
T2 sequence (P02747 29-245 limits assumed, chain 3 of 3): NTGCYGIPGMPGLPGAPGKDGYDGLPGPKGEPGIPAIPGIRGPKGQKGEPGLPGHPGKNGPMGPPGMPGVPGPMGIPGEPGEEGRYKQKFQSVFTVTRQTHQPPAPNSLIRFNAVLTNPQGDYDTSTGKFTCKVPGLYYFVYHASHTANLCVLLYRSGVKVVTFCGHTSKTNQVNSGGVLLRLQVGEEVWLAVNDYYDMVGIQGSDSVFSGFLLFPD
Method: as §1

Binder | binding result (canine IL4) | binding result (human C1q)
IL13R(ECD)-IL4R(ECD)-wild type canine IgG-B Fc (Fc fusion, also called fusion protein comprising wild-type canine IgG-B Fc) TETQPPVTNLSVSVENLCTVIWTWDPPEGASPNCTLRYFSHFDNKQDKKIAPETHRSKEVPLNERICLQVGSQCSTNESDNPSILVEKCTPPPEGDPESAVTELQCVWHNLSYMKCTWLPGRNTSPDTNYTLYYWHSSLGKILQCEDIYREGQHIGCSFALTNLKDSSFEQHSVQIVVKDNAGKIRPSFNIVPLTSHVKPDPPHIKRLFFQNGNLYVQWKNPQNFYSRCLSYQVEVNNSQTETNDIFYVEEAKCQNSEFEGNLEGTICFMVPGVLPDTLNTVRIRVRTNKLCYEDDKLWSNWSQAMSIGENTDPTGGGSGSGSVKVLHEPSCFSDYISTSVCQWKMDHPTNCSAELRLSYQLDFMGSENHTCVPENREDSVCVCSMPIDDAVEADVYQLDLWAGQQLLWSGSFQPSKHVKPRTPGNLTVHPNISHTWLLMWTNPYPTENHLHSELTYMVNVSNDNDPEDFKVYNVTYMGPTLRLAASTLKSGASYSARVRAWAQTYNSTWSDWSPSTTWLNYYEPKRENGRVPRPPDCPKCPAPEMLGGPSVFIFPPKPKDTLLIARTPEVTCVVVDLDPEDPEVQISWFVDGKQMQTAKTQPREEQFNGTYRVVSVLPIGHQDWLKGKQFTCKVNNKALPSPIERTISKARGQAHQPSVYVLPPSREELSKNTVSLTCLIKDFFPPDIDVEWQSNGQQEPESKYRTTPPQLDEDGSYFLYSKLSVDKSRWQRGDTFICAVMHEALHNHYTQESLSHSPGK | binds | binds
IL13R(ECD)-IL4R(ECD)-variant canine IgG-B Fc (Fc fusion, also called fusion protein comprising variant canine IgG-B Fc K(93)R) TETQPPVTNLSVSVENLCTVIWTWDPPEGASPNCTLRYFSHFDNKQDKKIAPETHRSKEVPLNERICLQVGSQCSTNESDNPSILVEKCTPPPEGDPESAVTELQCVWHNLSYMKCTWLPGRNTSPDTNYTLYYWHSSLGKILQCEDIYREGQHIGCSFALTNLKDSSFEQHSVQIVVKDNAGKIRPSFNIVPLTSHVKPDPPHIKRLFFQNGNLYVQWKNPQNFYSRCLSYQVEVNNSQTETNDIFYVEEAKCQNSEFEGNLEGTICFMVPGVLPDTLNTVRIRVRTNKLCYEDDKLWSNWSQAMSIGENTDPTGGGSGSGSVKVLHEPSCFSDYISTSVCQWKMDHPTNCSAELRLSYQLDFMGSENHTCVPENREDSVCVCSMPIDDAVEADVYQLDLWAGQQLLWSGSFQPSKHVKPRTPGNLTVHPNISHTWLLMWTNPYPTENHLHSELTYMVNVSNDNDPEDFKVYNVTYMGPTLRLAASTLKSGASYSARVRAWAQTYNSTWSDWSPSTTWLNYYEPKRENGRVPRPPDCPKCPAPEMLGGPSVFIFPPKPKDTLLIARTPEVTCVVVDLDPEDPEVQISWFVDGKQMQTAKTQPREEQFNGTYRVVSVLPIGHQDWLKGKQFTCRVNNKALPSPIERTISKARGQAHQPSVYVLPPSREELSKNTVSLTCLIKDFFPPDIDVEWQSNGQQEPESKYRTTPPQLDEDGSYFLYSKLSVDKSRWQRGDTFICAVMHEALHNHYTQESLSHSPGK | binds | binds
